Results from US20220275333A1 (FATE THERAPEUTICS, published 2022).

Biological target: T1, human MICA (on target cells: MICA over-expressing P815, MICA+ Nalm6, endogenous on A2058, K562, CaSki) (human, UniProt Q29983 24-383)
T1 sequence (looked up): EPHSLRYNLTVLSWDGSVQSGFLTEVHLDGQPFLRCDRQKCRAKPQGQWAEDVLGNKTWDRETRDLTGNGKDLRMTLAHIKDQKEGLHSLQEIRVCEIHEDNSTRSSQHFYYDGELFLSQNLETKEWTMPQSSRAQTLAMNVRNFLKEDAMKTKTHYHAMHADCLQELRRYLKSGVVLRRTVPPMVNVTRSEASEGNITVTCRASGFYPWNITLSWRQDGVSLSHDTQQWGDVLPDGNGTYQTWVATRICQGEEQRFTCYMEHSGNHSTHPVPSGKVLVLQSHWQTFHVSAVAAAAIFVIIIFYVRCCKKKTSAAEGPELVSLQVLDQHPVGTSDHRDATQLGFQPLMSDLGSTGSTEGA
Experiment: cell-based or functional assay

B1: MICA/B CAR (anti-MICA/B chimeric antigen receptor; version not stated for the experiment) (other)
VH: QIQLVQSGPELKKPGETVKVSCKASGYMFTNYAMNWVKQAPEKGLKWMGWINTHTGDPTYADDFKGRIAFSLETSASTAYLQINNLKNEDTATYFCVRTYGNYAMDYWGQGTSVTVSS
VL: DIQMTQTTSSLSASLGDRVTISCSASQDISNYLNWYQQKPDGTVKLLIYDTSILHLGVPSRFSGSGSGTDYSLTISNLEPEDIATYYCQQYSKFPRTFGGGTTLEIK
EC50 of cytotoxicity (% Caspase 3/7+ target cells) of MICA/B CAR+ T cells on MICA+ Nalm6 cells over E:T ratios, 4 hours: ~1.9 E:T ratio
EC50 of cytotoxicity (% Caspase 3/7+ target cells) of MICA/B CAR+ iNK cells on P815 MICA+ cells over E:T ratios, 4 hours: ~5.2 E:T ratio
